From US7087393 come the findings set out here.

In this test the target is rabbit anti-CS198 peptide antiserum raised against the unconjugated peptide of SEQUENCE ID NO 44 (13 week bleed). In words: Western blot competition: antiserum pre-incubated overnight at 4 C with varying concentrations of peptide immunogen before exposure to the filter carrying the 45 kD band.

As for RLQKSQSSDLLERERESVLRREQEVAEERRN [CS198 synthetic peptide of SEQUENCE ID NO 44], the concentration of peptide at which antibody binding to the band was inhibited came out at 2.6 µM.
